Among the data in publication PMC9837990 are Kd, koff and t1/2 values, retold here.

This experiment concerns the target CH31 IgG monoclonal antibody. The experiment can be described thus: SPR.

As to eOD-GT6-Avi-3C-His (designed binder), the Kd came out at 5200 nM and the koff was over 0.01 s⁻¹.
eOD-GT8_AviHis (designed binder) registered an equilibrium dissociation constant (Kd) of 308 nM and an off-rate constant (koff) of over 0.01 s⁻¹.
“GT6 tetramer (biotinylated eOD-GT6 on streptavidin) (from UniProt P22629 25-183) (complex)” yielded a t1/2 of 4.9 min.
The same measure, in the same setting: next, “GT8 tetramer (biotinylated eOD-GT8 on streptavidin) (from UniProt P22629 25-183) (complex)”: 44.4 min.
